Measured values from the supplement of paper PMC12455559.
± gives the standard deviation of the averaged measurements.

Assays:
[1] = PET hydrolysis, aromatic products released after 48 h (umol product/mg enzyme); higher = more PET depolymerization activity
Method in brief: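 Candidate enzymes, made tagless by SUMO cleavage and purified on nickel beads, were added at 5 μg (50 μL) to 3.5 mg of either amorphous PET film or crystalline PET powder in 450 μL buffer. The sealed plates stood unshaken for 48 h at 40 or 60 °C. Activity on PET is the aromatic product found in the supernatant per mg enzyme, read at 260 and 280 nm against buffer blanks.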

[2] = purified protein yield per well (BCA); higher = higher soluble expression
Method in brief: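 Candidate enzymes were expressed in E. coli C41(DE3) in 2 mL autoinduction cultures with 100 µg/mL kanamycin, at 37 °C for 2 h and then 18 °C for 40 h. Cells were lysed, and protein was bound to Ni-charged magnetic beads and released by SUMO protease cleavage on an OT-2 robot. The read-out is purified protein yield per well, measured with the Pierce Rapid Gold BCA kit. Values below 25 ug (0.1 mg/mL) are below the detection threshold.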

[3] = melting temperature (DSF); higher = more thermostable
Method in brief: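 Enzymes made in E. coli C41(DE3) were nickel-bead purified and cut free with SUMO protease before testing. Differential scanning fluorimetry gave each melting temperature. For this, 5 μL 5X Sypro Orange was added to 45 μL enzyme (0 to 0.3 mg/mL) in sealed PCR plates, and a Bio-Rad CFX96 read fluorescence from 25 °C over 250 cycles of 0.3 °C each, ramping at 0.3 °C/s.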

[4] = substrate: cryPow, 40 °C, pH 5.5
[5] = substrate: cryPow, 40 °C, pH 6.5
[6] = substrate: cryPow, 40 °C, pH 7.5
[7] = substrate: cryPow, 40 °C, pH 8.5
[8] = substrate: cryPow, 40 °C, pH 4.5
[9] = substrate: cryPow, 60 °C, pH 4.5
[10] = substrate: cryPow, 60 °C, pH 5.5
[11] = substrate: cryPow, 60 °C, pH 6.5
[12] = substrate: cryPow, 60 °C, pH 7.5
[13] = substrate: aFilm, 40 °C, pH 5.5
[14] = substrate: aFilm, 40 °C, pH 6.5
[15] = substrate: aFilm, 40 °C, pH 7.5
[16] = substrate: aFilm, 40 °C, pH 8.5
[17] = substrate: aFilm, 60 °C, pH 5.5
[18] = substrate: aFilm, 60 °C, pH 6.5
[19] = substrate: aFilm, 60 °C, pH 7.5
[20] = substrate: aFilm, 60 °C, pH 8.5
[21] = substrate: cryPow, 60 °C, pH 8.5

AENPHQRGPNPTVAALEAAAGPFAVAKVSVPGGHGFGGGTITYPTDTSQGTFGAVAVSPGFIESEGAIAWFGPRLASHGFVVITISTNGLFDQPDARGAQLLAALDYVTKSSAVRDRVDPARLAVMGHSMGGGGALYATAQRPALKASIPLLAWSNTKSWGSVRVPTMVIGAENDFIASVGSHSEPFYQSLGGEKAYLEMNDADHFVTNSPTPTVGKLTVSWLKRFMDNDTRYDQFLCPAPPVGGPISEYRDTCPYI [DP017]
PET hydrolysis [1, 4]: 4
PET hydrolysis [1, 5]: 11
PET hydrolysis [1, 6]: 13
PET hydrolysis [1, 7]: 6
purified protein yield per well [2]: 30 µg
melting temperature [3]: 49.6 C

AENPYERGPAPTTASIEALRGPFATAETTVSSLSVRGFGGGTIHYPTSTAEGTFGAVAVAPGYTASQSSLSWLGPRLASQGFVVFVIDTNSRYDQPASRGDQLLAALDYLTTSSSVRGRIDASRLGVMGHSMGGGGALEATKDRPSLQASIPLTPWNTTKTWSTVRTPTLVVGAEDDSVAPVRTHAEPFYEGLPSTLDKAYLELAGASHFAPNSSNTTIAKYSIAWLKRFVDDDTRYEQFLCPAPRGTAISEYRDTCPHP [TEP110]
PET hydrolysis [1, 8]: < 3
PET hydrolysis [1, 4]: < 3
PET hydrolysis [1, 5]: < 3
PET hydrolysis [1, 6]: < 3
purified protein yield per well [2]: 48.9 µg
melting temperature [3]: 47.2 C

AENPYQRGPDPTLAALAASAGPYPIMETVVGSAEVTNFGGASIYYPAGTADGTFGGVAVTPGFLGPRSTMEWVARRVASHGFVVINIDTLERNDTPPLRARQMLAALDYLTGASAVRDRVDPTRLAVMGHSMGGGGSLQASRQRPQLKAAVPLTPWSNDKDFSADVVPTLIIGAELDDTAPVAEHAEPFFESIAAARKAYLELNDAEHRAPIRTNETIGTYSVAWLKRFVDDDTRYEQFLCPPPAPSAAIEEFRGTCPSS [TEP106]
PET hydrolysis [1, 8]: < 3
PET hydrolysis [1, 4]: < 3
PET hydrolysis [1, 5]: < 3
PET hydrolysis [1, 6]: < 3
PET hydrolysis [1, 9]: < 3
PET hydrolysis [1, 10]: < 3
PET hydrolysis [1, 11]: < 3
PET hydrolysis [1, 12]: < 3
purified protein yield per well [2]: 87.7 µg
melting temperature [3]: 41.5 C

AESPYQRGPDPTRESVAASRGTFATAEVSVPAGNGFGGGVIYYPTDTSQGTFGGVAIVPGYTATWAAEGAWMGHWLASFGFVVIGIDTINRNDWDTARGTQLLAALDYLTQRSSVRNRVDANRLAVMGHSMGGGGAMHAALQRPSLKAAIGLAPFSPSQNLTNMRVPTLLVAGQNDTTTTPTSILNLYNGIPATTEKAYLELTGAGHGFPTSANSVMTRKVIPWLKIFVDHDTRYHQFLCPLLDWTGITAYRSSCPLNPPGGPTGSTFSLVGADSGKCVDVPGASRTNGTGLITYTCNGASNQRWTQTAANELRIYDNSKCMEAGTSAGSRAVITSCTGGNGQKWTFNANGTITHAQSGLCLYVNGGSTANQAAVIVWTCHGGSNQVWTRQP [TEP163]
PET hydrolysis [1, 8]: < 3
PET hydrolysis [1, 4]: 8
PET hydrolysis [1, 5]: 8
PET hydrolysis [1, 6]: 5
PET hydrolysis [1, 9]: < 3
PET hydrolysis [1, 10]: < 3
PET hydrolysis [1, 11]: 3
PET hydrolysis [1, 12]: < 3
purified protein yield per well [2]: 148 µg
melting temperature [3]: 73 C

AGFEKGPDPTTASVTADRGSYDIAQVDVPKGSGTGFADGTIYYPKSTADGTFGAVAVIPGFLEPKSAIDWYGPRLASQGFVVMTLDTTSVFDTPDSRGGQLLAALDYLTSKSTVKDRIDPNRLAVVGHSMGGGGTLSAAANRPNLKAAVALAPWHVSAPLTSVKTPTMIFGSDNDFIAPDGTFAKPFYDGISNAPEKAYVRLKNAGHMAYVFPDKRIAEYTLSWLKRYVDDDTRYTQFLCPGPTNESTIAAYKSTCPM [DP093]
PET hydrolysis [1, 13]: < 3
PET hydrolysis [1, 14]: < 3
PET hydrolysis [1, 15]: < 3
PET hydrolysis [1, 16]: < 3
PET hydrolysis [1, 17]: < 3
PET hydrolysis [1, 18]: < 3
PET hydrolysis [1, 19]: < 3
PET hydrolysis [1, 20]: < 3
PET hydrolysis [1, 4]: 4
PET hydrolysis [1, 5]: 1.5 ± 2.1
PET hydrolysis [1, 6]: < 3
PET hydrolysis [1, 7]: < 3
PET hydrolysis [1, 10]: < 3
PET hydrolysis [1, 11]: < 3
PET hydrolysis [1, 12]: < 3
PET hydrolysis [1, 21]: < 3
purified protein yield per well [2]: 225 µg
melting temperature [3]: 46.6 C

AGFERGPDPSTSTLDAARGPFAVAEERVYSWRASGFGGGDIYYPTTTSEGTFGVVAVAPGYTAGRSSMAWLASRIASHGFVVINIDTLTRSDQPASRGRQLLAALDHVTSSSGVRDRVDASRQAVVGHSMGGGGALEAASSRPALQAAVPLTPWNLTKRWSSLQVPTFIVGAENDSVASVRTHAEPFYESLPAALPKAYLELNNASHFAPNTTNSTIGRYTVAWLKRYVDDDLRYSQFLCPPPPPSSAIEEFRATC [DP087]
PET hydrolysis [1, 13]: < 3
PET hydrolysis [1, 14]: < 3
PET hydrolysis [1, 15]: < 3
PET hydrolysis [1, 16]: < 3
PET hydrolysis [1, 17]: < 3
PET hydrolysis [1, 18]: < 3
PET hydrolysis [1, 19]: < 3
PET hydrolysis [1, 20]: < 3
PET hydrolysis [1, 4]: < 3
PET hydrolysis [1, 5]: < 3
PET hydrolysis [1, 6]: < 3
PET hydrolysis [1, 7]: < 3
PET hydrolysis [1, 10]: < 3
PET hydrolysis [1, 11]: < 3
PET hydrolysis [1, 12]: < 3
PET hydrolysis [1, 21]: < 3
purified protein yield per well [2]: 208 µg
melting temperature [3]: 44.2 C
